According to patent publication US20050043235A1 (LICENTIA, published 2005):
Values belong to the binder of their own block, whether it stands above or below them.

Tests used:
[1] = target: T1, VEGFR-1-Ig (UniProt P17948 27-553); experiment: precipitation of 35S-labelled protein with VEGFR-1-Ig, SDS-PAGE (FIG. 5B)
T1 construct: not shown: Ig part of the fusion, not described

[2] = target: T2, neuropilin-1-Ig (UniProt O14786 22-856); experiment: precipitation of 35S-labelled protein with neuropilin-1-Ig, SDS-PAGE (FIG. 5A)
T2 construct: also called NP1; NP-1; not shown: Ig part of the fusion, not described
T2 sequence (looked up): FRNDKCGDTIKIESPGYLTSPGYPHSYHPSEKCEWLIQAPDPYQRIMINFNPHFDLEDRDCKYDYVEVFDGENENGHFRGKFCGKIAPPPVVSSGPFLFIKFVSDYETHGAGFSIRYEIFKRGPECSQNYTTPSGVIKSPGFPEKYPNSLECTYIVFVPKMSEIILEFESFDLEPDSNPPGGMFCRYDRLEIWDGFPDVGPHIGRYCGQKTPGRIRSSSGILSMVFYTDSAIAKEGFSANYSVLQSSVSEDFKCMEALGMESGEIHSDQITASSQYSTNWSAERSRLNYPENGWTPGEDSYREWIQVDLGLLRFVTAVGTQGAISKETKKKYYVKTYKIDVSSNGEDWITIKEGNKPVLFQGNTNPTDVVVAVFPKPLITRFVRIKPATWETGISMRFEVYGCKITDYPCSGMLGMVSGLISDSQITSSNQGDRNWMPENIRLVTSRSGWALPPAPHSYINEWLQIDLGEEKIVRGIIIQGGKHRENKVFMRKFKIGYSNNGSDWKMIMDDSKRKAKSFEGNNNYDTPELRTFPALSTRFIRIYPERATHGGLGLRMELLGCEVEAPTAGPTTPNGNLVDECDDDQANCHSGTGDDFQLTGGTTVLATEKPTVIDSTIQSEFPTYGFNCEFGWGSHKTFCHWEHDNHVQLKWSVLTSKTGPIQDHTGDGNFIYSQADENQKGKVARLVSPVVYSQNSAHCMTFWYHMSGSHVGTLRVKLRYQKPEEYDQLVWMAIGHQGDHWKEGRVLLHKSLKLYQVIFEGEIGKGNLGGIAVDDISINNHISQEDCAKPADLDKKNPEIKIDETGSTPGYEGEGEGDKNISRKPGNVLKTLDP

T1 sequence (P17948 27-553): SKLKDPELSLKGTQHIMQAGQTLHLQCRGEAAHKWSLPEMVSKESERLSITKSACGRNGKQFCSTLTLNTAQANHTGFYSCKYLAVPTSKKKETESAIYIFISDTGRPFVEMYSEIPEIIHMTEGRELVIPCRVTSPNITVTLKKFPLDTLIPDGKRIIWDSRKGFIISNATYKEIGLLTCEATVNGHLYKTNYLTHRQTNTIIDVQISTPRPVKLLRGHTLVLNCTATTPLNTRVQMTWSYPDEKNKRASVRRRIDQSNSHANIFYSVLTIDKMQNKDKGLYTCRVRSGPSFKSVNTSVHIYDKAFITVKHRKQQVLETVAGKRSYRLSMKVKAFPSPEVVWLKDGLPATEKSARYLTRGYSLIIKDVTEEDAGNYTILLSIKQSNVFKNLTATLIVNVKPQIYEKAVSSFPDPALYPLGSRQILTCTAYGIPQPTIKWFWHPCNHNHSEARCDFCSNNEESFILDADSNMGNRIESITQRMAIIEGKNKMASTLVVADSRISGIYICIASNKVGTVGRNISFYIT

- binding result [1]: no binding
B1: CA89, chimeric protein of the VEGF homology domain of VEGF-C and VEGF exon 6-8 encoded sequences (ligand)
chain: TEETIKFAAAHYNTEILKSIDNEWRKTQCMPREVCIDVGKEFGVATNTFFKPPCVSVYRCGGCCNSEGLQCMNTSTSYLSKTLFEITVPLSQGPKPVTISFANHTSCRCMSKLDVYRQVHSIIRRKSVRGKGKGQKRKRKKSRYKSWSVPCGPCSERRKHLFVQDPQTCKCSCKNTDSRCKARQLELNERTCRCDKPRR
notes: CA89 is released only with heparin in the medium; also called pEBS7/CA89; pREP7/CA89

- binding result [1]: no binding
- binding result [2]: no binding
B2: VEGF-CΔNΔC (ligand)
chain: TEETIKFAAAHYNTEILKSIDNEWRKTQCMPREVCIDVGKEFGVATNTFFKPPCVSVYRCGGCCNSEGLQCMNTSTSYLSKTLFEITVPLSQGPKPVTISFANHTSCRCMSKLDVYRQVHSIIRR
notes: also called N C; VEGF-C short form

- binding result [1]: no binding
B3: CA65, chimeric protein of the VEGF homology domain of VEGF-C and VEGF exon 7-8 encoded sequences (ligand)
chain: TEETIKFAAAHYNTEILKSIDNEWRKTQCMPREVCIDVGKEFGVATNTFFKPPCVSVYRCGGCCNSEGLQCMNTSTSYLSKTLFEITVPLSQGPKPVTISFANHTSCRCMSKLDVYRQVHSIIRRPCGPCSERRKHLFVQDPQTCKCSCKNTDSRCKARQLELNERTCRCDKPRR
notes: Exon 7-8 is used here; also called pEBS7/CA65; pREP7/CA65
